Substitutions are numbered along the chain they refer to.
Experiments:
[1] = molecular target: T1, NKGW1 (human NKG2d80-216 extracellular region with N-term hexahistidine tag) (human, UniProt P26718 80-216); assay: surface plasmon resonance
T1 construct: also called human NKG2d (NKGW1)
T1 sequence: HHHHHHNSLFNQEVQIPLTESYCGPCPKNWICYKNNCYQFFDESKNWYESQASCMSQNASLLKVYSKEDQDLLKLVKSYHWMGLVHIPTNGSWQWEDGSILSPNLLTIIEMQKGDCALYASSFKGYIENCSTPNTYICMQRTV

Cyno NKG2d (NKGW2.001) = molecular target: T2, Cyno NKG2d (NKGW2.001) (cynomolgus monkey, UniProt P61252 80-216, limits assumed); assay: surface plasmon resonance
T2 sequence (looked up): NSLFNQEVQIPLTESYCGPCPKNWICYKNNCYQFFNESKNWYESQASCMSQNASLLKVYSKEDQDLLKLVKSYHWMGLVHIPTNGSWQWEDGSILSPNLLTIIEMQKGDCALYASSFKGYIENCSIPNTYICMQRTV

N46W3 (NKp46 D1) = molecular target: T3, N46W3 (NKp46 D1) (UniProt O76036 22-120, limits assumed); assay: binding kinetics, method not named
T3 construct: domain: D1

GPRC5d = GPRC5d (UniProt Q9NZD1 1-345, limits assumed); assay: cell-based or functional assay
BCMA = molecular target: T4, BCMA (UniProt Q02223 1-184, limits assumed); assay: cell-based or functional assay
T4 sequence (looked up): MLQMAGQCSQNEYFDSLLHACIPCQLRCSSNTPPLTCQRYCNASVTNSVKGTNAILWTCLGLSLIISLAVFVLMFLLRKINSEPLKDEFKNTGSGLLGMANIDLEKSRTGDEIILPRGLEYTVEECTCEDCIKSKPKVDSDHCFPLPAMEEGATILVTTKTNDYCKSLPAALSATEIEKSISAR

[2] = molecular target: NKp46 on NKL cells / NK cells (human, UniProt O76036 22-304); assay: cell-based or functional assay
Sequence of NKp46 on NKL cells / NK cells (O76036 22-304): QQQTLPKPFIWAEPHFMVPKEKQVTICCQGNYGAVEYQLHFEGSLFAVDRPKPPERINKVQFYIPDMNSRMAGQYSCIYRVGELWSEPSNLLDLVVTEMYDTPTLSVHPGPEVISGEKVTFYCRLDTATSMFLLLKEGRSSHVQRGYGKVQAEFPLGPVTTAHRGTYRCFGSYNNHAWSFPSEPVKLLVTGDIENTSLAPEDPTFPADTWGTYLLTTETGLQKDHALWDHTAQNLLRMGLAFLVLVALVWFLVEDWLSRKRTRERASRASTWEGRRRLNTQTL

Sequence of GPRC5d (Q9NZD1 whole entry): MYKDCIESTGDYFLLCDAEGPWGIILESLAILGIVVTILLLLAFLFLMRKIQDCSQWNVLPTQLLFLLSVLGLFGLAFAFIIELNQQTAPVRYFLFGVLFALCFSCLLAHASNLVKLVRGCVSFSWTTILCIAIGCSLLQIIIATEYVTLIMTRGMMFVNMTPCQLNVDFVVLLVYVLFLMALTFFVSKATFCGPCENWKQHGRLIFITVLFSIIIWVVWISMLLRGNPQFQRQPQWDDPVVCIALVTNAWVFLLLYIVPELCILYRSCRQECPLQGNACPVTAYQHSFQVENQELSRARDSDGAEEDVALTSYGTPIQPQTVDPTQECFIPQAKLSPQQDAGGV
T3 sequence (O76036 22-120 limits assumed): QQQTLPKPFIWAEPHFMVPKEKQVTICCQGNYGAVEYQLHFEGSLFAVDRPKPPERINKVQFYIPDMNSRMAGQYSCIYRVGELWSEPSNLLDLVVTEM

B1: NKGB83 (antibody, human IgG1, V domains shown)
VH: EVQLVQSGAEVKKPGESLKISCKGSGYSFTSYWIGWVRQMPGKGLEWMGIIYPGDSYTRYSPSFQGQVTISADKSISTAYLQWSSLKASDTAMYYCARGGVSASGNYRALDYWGQGTLVTVSS
VL: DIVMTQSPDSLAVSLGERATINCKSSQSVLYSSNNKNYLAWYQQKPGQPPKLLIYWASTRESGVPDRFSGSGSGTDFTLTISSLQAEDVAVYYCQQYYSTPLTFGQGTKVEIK
notes: phage display panel; v-regions cloned into silent human IgG1/kappa constant regions; also called NKGB83.002
Kd [1]: 8.2 nM
koff [1]: 0.000941 s⁻¹
kon [1]: 114000 M⁻¹ s⁻¹
Kd (Cyno NKG2d (NKGW2.001)): 27.4 nM
koff (Cyno NKG2d (NKGW2.001)): 0.00212 s⁻¹
kon (Cyno NKG2d (NKGW2.001)): 77600 M⁻¹ s⁻¹

B2: NKGB125 (antibody, human IgG1, V domains shown)
VH: EVQLLESGGGLVQPGGSLRLSCAASGFTFSIYAMTWVRQAPGKGLEWVSIISGSGDHTFYADSVKGRFTISRDNSRNTLYLQMDSLRAEDTAVYYCAKEGKWVQLSHFANWGQGTLVTVSS
VL: SYVLTQPPSVSVAPGQTARITCGGNNIGSKSVHWYQQKAGQAPVLVVYDDSDRPSGIPERFSGSNSGNTATLTISRVEAGDEADYYCQVWDGRSDHVVFGGGTKLTVL
notes: OmniRat hybridoma clone; v-regions cloned into human IgG1 sigma and lambda constant regions; also called NKGB125.002; NKGY1_045_F04
Kd [1]: 0.05 nM
koff [1]: 3.85e-05 s⁻¹
kon [1]: 751000 M⁻¹ s⁻¹
Kd (Cyno NKG2d (NKGW2.001)): 0.1 nM
koff (Cyno NKG2d (NKGW2.001)): 5.84e-05 s⁻¹
kon (Cyno NKG2d (NKGW2.001)): 571000 M⁻¹ s⁻¹

B3: N46B105 (antibody, V domains shown)
VH: QLQLQESGPGPVRPSETLSLTCTVSGDSIRSSSYYWGWIRQPPGKGLDWIGSIYYTGSTYYNPSLMSRVTISVDTSKNQFSLKLSSVTAADTAVYYCASPGYSSGWSIDYWGQGTLVTVSS
VL: DIQLTQSPSFLSASVGDRVTITCRASQGISSYLAWYQQKPGKAPKLLIYVASTLQSGVPSRFSGSGSGTEFTLTISSLQPEDFATYYCQQLNSYPRMTFGGGTKVEIK
notes: also called VR000044289
Kd (N46W3 (NKp46 D1)): 3.5 nM

B4: NG2GB19 (bispecific antibody, human IgG1, lambda)
heavy: not shown
light: SYVLTQPPSVSVAPGQTARITCGGNNIGSKSVHWYQQKAGQAPVLVVYDDSDRPSGIPERFSGSNSGNTATLTISRVEAGDEADYYCQVWDGRSDHVVFGGGTKLTVLGQPKAAPSVTLFPPSSEELQANKATLVCLISDFYPGAVTVAWKADSSPVKAGVETTTPSKQSNNKYAASSYLSLTPEQWKSHRSYSCQVTHEGSTVEKTVAPTECS
IC50 for BsAb cytotoxicity, H929/GFP target cells with PBMC effectors (GPRC5d): 0.0199 nM

B5: NG2GB23 (bispecific antibody, human IgG1, lambda)
heavy: EVQLLESGGGLVQPGGSLRLSCAASGFTFSIYAMTWVRQAPGKGLEWVSIISGSGDHTFYADSVKGRFTISRDNSRNTLYLQMDSLRAEDTAVYYCAKEGKWVQLSHFANWGQGTLVTVSSASTKGPSVFPLAPSSKSTSGGTAALGCLVKDYFPEPVTVSWNSGALTSGVHTFPAVLQSSGLYSLSSVVTVPSSSLGTQTYICNVNHKPSNTKVDKKVEPKSCDKTHTCPPCPAPELLGGPSVFLFPPKPKDTLMISRTPEVTCVVVDVSHEDPEVKFNWYVDGVEVHNAKTKPREEQYNSTYRVVSVLTVLHQDWLNGKEYKCKVSNKALPAPIEKTISKAKGQPREPQVYVYPPSREEMTKNQVSLTCLVKGFYPSDIAVEWESNGQPENNYKTTPPVLDSDGSFALVSKLTVDKSRWQQGNVFSCSVMHEALHNHYTQKSLSLSPGK
light: B4 light
chain: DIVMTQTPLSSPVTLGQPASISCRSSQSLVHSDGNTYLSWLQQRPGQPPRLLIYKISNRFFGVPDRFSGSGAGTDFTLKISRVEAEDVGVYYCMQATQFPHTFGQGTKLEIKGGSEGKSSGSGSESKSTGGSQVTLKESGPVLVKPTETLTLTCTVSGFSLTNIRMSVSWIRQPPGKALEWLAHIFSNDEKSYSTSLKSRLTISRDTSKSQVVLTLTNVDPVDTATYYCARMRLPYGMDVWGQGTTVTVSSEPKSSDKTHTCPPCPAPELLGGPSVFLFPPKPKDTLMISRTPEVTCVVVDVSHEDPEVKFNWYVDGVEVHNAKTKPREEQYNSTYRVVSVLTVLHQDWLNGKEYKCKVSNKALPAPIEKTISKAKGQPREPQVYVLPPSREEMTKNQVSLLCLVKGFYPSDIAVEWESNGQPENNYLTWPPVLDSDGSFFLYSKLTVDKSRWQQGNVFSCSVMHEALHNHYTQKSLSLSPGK
IC50 for BsAb cytotoxicity, H929/GFP target cells with PBMC effectors (GPRC5d): 0.00337 nM

B6: NG2BB10 (bispecific antibody, human IgG1, lambda)
heavy: B5 heavy
light: B4 light
chain: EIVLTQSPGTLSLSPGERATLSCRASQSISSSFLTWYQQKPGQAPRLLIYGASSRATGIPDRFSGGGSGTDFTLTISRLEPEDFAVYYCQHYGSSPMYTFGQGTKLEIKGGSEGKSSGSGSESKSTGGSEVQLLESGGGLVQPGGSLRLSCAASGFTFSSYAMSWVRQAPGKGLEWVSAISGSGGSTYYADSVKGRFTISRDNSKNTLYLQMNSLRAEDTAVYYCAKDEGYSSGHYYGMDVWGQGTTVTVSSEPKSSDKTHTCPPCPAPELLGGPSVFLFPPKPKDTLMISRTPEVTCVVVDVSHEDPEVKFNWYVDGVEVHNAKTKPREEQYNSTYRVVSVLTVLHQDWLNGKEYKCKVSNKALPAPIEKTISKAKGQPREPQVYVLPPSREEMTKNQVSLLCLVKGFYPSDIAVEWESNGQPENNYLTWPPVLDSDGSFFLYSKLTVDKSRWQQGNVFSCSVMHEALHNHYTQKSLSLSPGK
IC50 for BsAb cytotoxicity, H929/GFP target cells with PBMC effectors (BCMA): 0.0209 nM

B7: NG2BB9 (bispecific antibody, human IgG1, kappa)
heavy: EVQLVQSGAEVKKPGESLKISCKGSGYSFTSYWIGWVRQMPGKGLEWMGIIYPGDSYTRYSPSFQGQVTISADKSISTAYLQWSSLKASDTAMYYCARGGVSASGNYRALDYWGQGTLVTVSSASTKGPSVFPLAPSSKSTSGGTAALGCLVKDYFPEPVTVSWNSGALTSGVHTFPAVLQSSGLYSLSSVVTVPSSSLGTQTYICNVNHKPSNTKVDKKVEPKSCDKTHTCPPCPAPELLGGPSVFLFPPKPKDTLMISRTPEVTCVVVDVSHEDPEVKFNWYVDGVEVHNAKTKPREEQYNSTYRVVSVLTVLHQDWLNGKEYKCKVSNKALPAPIEKTISKAKGQPREPQVYVYPPSREEMTKNQVSLTCLVKGFYPSDIAVEWESNGQPENNYKTTPPVLDSDGSFALVSKLTVDKSRWQQGNVFSCSVMHEALHNHYTQKSLSLSPGK
light: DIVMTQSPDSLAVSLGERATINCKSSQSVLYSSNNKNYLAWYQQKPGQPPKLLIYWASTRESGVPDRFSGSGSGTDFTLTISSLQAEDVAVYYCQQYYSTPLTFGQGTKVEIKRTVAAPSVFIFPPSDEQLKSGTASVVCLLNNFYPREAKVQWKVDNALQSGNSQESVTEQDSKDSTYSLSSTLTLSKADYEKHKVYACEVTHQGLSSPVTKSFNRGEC
chain: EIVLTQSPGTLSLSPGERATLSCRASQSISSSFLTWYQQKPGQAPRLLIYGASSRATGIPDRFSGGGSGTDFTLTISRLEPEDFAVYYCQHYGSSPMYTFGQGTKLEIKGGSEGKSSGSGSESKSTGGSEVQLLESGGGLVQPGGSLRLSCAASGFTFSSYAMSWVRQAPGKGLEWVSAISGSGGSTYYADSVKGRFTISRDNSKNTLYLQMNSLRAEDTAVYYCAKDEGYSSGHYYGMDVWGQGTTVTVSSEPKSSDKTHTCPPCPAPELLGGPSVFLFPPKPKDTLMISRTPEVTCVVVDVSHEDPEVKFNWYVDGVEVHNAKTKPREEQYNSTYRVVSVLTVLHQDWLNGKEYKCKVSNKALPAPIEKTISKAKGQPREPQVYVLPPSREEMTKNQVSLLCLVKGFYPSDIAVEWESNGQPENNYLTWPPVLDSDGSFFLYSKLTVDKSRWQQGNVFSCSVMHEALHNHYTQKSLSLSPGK
IC50 for BsAb cytotoxicity, H929/GFP target cells with PBMC effectors (BCMA): 0.00722 nM

B8: NG2GB24 (bispecific antibody, human IgG1, kappa)
heavy: B7 heavy
light: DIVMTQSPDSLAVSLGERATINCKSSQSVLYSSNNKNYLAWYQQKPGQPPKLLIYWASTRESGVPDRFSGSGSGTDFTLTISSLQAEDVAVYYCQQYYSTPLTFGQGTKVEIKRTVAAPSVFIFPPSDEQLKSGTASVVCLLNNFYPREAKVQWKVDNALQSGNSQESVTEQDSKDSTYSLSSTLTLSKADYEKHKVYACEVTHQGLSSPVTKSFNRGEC
chain: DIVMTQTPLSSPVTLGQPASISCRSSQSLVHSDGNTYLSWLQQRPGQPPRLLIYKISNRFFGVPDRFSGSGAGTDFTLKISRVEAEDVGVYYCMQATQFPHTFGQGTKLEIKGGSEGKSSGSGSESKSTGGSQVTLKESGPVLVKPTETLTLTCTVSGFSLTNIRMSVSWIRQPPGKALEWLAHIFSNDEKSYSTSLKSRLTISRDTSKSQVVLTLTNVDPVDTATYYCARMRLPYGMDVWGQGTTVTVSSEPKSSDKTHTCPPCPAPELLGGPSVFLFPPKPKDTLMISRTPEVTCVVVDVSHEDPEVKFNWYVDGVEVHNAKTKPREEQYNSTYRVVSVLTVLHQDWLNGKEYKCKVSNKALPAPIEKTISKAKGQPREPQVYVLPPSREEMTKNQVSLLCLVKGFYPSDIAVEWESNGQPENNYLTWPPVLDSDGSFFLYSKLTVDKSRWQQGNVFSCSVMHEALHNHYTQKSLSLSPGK
IC50 for BsAb cytotoxicity, H929/GFP target cells with PBMC effectors (GPRC5d): 0.0144 nM

B9: N46BB4 (bispecific antibody, human IgG1, kappa)
heavy: QLQLQESGPGPVRPSETLSLTCTVSGDSIRSSSYYWGWIRQPPGKGLDWIGSIYYTGSTYYNPSLMSRVTISVDTSKNQFSLKLSSVTAADTAVYYCASPGYSSGWSIDYWGQGTLVTVSSASTKGPSVFPLAPSSKSTSGGTAALGCLVKDYFPEPVTVSWNSGALTSGVHTFPAVLQSSGLYSLSSVVTVPSSSLGTQTYICNVNHKPSNTKVDKKVEPKSCDKTHTCPPCPAPELLGGPSVFLFPPKPKDTLMISRTPEVTCVVVDVSHEDPEVKFNWYVDGVEVHNAKTKPREEQYNSTYRVVSVLTVLHQDWLNGKEYKCKVSNKALPAPIEKTISKAKGQPREPQVYVYPPSREEMTKNQVSLTCLVKGFYPSDIAVEWESNGQPENNYKTTPPVLDSDGSFALVSKLTVDKSRWQQGNVFSCSVMHEALHNHYTQKSLSLSPGK
light: DIQLTQSPSFLSASVGDRVTITCRASQGISSYLAWYQQKPGKAPKLLIYVASTLQSGVPSRFSGSGSGTEFTLTISSLQPEDFATYYCQQLNSYPRMTFGGGTKVEIKRTVAAPSVFIFPPSDEQLKSGTASVVCLLNNFYPREAKVQWKVDNALQSGNSQESVTEQDSKDSTYSLSSTLTLSKADYEKHKVYACEVTHQGLSSPVTKSFNRGEC
chain: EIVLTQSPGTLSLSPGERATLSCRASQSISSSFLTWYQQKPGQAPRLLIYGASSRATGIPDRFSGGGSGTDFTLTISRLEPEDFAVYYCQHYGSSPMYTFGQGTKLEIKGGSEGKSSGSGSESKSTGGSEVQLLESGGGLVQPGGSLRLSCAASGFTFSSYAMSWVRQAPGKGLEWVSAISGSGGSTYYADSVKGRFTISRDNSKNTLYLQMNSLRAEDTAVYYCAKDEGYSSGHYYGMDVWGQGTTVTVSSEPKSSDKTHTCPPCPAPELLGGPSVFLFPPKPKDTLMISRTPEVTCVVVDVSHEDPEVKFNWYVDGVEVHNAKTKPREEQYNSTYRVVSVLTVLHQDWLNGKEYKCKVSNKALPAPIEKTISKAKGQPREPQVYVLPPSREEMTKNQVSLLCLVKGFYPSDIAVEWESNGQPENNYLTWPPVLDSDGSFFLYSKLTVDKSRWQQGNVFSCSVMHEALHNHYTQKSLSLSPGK
IC50 for BsAb cytotoxicity, H929/GFP target cells with PBMC effectors (BCMA): 0.00153 nM

B10: N46BB10 (bispecific antibody, human IgG1, kappa)
heavy: B9 heavy with V354T, Y355L, T370W, A409F, V411Y, H439R, Y440F
light: B9 light
chain: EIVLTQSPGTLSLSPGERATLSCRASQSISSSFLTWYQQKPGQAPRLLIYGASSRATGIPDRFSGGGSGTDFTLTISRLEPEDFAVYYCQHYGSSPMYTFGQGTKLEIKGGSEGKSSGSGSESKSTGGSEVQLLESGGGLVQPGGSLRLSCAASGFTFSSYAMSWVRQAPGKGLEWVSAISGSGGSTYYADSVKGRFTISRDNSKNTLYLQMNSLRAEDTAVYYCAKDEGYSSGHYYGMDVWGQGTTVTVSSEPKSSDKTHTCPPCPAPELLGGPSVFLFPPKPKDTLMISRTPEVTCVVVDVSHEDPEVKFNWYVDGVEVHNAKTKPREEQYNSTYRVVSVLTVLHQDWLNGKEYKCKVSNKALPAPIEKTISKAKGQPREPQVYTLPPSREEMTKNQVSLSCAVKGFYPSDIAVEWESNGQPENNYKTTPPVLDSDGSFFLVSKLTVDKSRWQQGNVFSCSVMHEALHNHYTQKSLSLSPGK
EC50 of cytotoxicity (hypoxia study, PBMC on MM1R/GFP cells) [2]: ~0.07 nM

B11: N46BB10.AFU (bispecific antibody, human IgG1, kappa)
heavy: B9 heavy with V354T, Y355L, T370W, A409F, V411Y, H439R, Y440F
light: B9 light
chain: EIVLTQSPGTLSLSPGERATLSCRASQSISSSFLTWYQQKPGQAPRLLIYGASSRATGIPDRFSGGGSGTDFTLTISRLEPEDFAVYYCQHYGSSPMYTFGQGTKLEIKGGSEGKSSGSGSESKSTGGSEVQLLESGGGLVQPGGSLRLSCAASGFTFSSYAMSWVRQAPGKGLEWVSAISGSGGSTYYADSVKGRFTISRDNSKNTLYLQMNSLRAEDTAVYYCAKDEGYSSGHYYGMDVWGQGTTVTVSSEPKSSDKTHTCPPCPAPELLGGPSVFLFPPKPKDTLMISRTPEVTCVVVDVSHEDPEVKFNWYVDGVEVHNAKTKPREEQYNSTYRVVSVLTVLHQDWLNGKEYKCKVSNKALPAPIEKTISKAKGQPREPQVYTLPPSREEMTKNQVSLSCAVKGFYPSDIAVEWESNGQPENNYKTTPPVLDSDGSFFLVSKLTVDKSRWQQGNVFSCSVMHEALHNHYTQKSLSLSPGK
EC50 of cytotoxicity (hypoxia study, PBMC on MM1R/GFP cells) [2]: 0.006 nM

B12: N46BB14 (bispecific antibody, human IgG1, kappa, L234A L235A)
heavy: B9 heavy with L238A, L239A, D269S, V354T, Y355L, T370W, A409F, V411Y, H439R, Y440F
light: B9 light
chain: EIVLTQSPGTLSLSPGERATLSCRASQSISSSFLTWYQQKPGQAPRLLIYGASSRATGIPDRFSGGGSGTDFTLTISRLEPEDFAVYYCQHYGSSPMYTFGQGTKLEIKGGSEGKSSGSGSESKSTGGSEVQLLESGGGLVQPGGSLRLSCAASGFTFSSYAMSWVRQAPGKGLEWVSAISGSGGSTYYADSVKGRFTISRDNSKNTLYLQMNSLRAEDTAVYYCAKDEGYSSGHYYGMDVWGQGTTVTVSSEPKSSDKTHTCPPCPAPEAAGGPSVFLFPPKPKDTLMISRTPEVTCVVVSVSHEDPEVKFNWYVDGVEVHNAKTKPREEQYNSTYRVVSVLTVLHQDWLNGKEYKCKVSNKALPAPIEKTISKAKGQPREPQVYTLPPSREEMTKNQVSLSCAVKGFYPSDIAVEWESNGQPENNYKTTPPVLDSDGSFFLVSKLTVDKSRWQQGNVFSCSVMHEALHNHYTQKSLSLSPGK
EC50 of cytotoxicity (hypoxia study, PBMC on MM1R/GFP cells, 48-hour endpoint) [2]: ~1.19 nM
